{"source": "the Immune Epitope Database (IEDB)", "assay_in_all_cases": "IEDB peptide-MHC binding, purified MHC/direct/fluorescence; filed as Kd, often an IC50 or EC50 that approximates it; ≥ and ≤ were set here for values at or beyond the usual limits of such assays", "conditions_in_all_cases": "source organism: Lyssavirus rabies", "key": {"[1]": {"biological_target": "HLA-A*03:01"}, "[2]": {"biological_target": "HLA-A*29:02"}, "[3]": {"biological_target": "HLA-B*51:01"}, "[4]": {"biological_target": "HLA-B*39:01"}, "[5]": {"biological_target": "HLA-A*69:01"}, "[6]": {"biological_target": "HLA-B*46:01"}, "[7]": {"biological_target": "HLA-B*18:01"}, "[8]": {"biological_target": "HLA-A*02:06"}, "[9]": {"biological_target": "HLA-A*02:12"}}}
{"sequence": "YLDNVGVHI", "values": [{"measurement": "Kd", "setting": "[1]", "result": "≥ 20", "unit": "µM"}, {"measurement": "Kd", "setting": "[2]", "result": "≥ 20", "unit": "µM"}, {"measurement": "Kd", "setting": "[3]", "result": "≥ 20", "unit": "µM"}, {"measurement": "Kd", "setting": "[4]", "result": "≥ 20", "unit": "µM"}, {"measurement": "Kd", "setting": "[5]", "result": "≥ 20", "unit": "µM"}, {"measurement": "Kd", "setting": "[6]", "result": "≥ 20", "unit": "µM"}, {"measurement": "Kd", "setting": "[7]", "result": "≥ 20", "unit": "µM"}, {"measurement": "Kd", "setting": "[8]", "result": 0.036, "unit": "µM"}, {"measurement": "Kd", "setting": "[9]", "result": 0.007, "unit": "µM"}]}
